Laboratory results published in patent US20220354938A1.

Biological target: C2 epitope-peptide (…, SEQ ID NO:21) / human HLA-A2 MHC class I molecule complex on the cell surface (human; human CMV)

## TCR CMV-pp65-PE STAR™ multimer reagent (Altor Bioscience Corp., Miramar, Fla., U.S.)
  iMFI: 10100 RFU
  percentage of pMHC I complex presenting cells: 35%
